Assay results reported in PMC8277577 (Nature, 2021).
Numbering of substitutions follows the chain as printed.

B1: C1015 (antibody, V domains shown)
VH: QVQLQESGPRLVKPSGSLSLTCAVSGGSLSSSNWWNWVRQSPEKGLEWIGEIFHSGSTYYNPSLKSRVTISVDKSKNHFSLNLRSVTAADTAVYYCAGSYSNYIGGVWFDPWGQGTLVTVSS
VL: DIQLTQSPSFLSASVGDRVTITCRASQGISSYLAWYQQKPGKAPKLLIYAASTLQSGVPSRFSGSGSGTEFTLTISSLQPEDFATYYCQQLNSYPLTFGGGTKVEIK
notes: source: recombinant, purified
B2: C1010 (antibody, V domains shown)
VH: QVQLVESGGGVVQPGRSLRLSCAASGFTFSSYAMHWVRQAPGKGLEWVAVISYDGSNKYYADSVKGRFTISRDNSKNTLYLQMNSLRAEDTAVYYCAKKGQPYCGGDCYFYYFDYWGQGTLVTVSS
VL: DIQMTQSPSSLSASLGDRVTITCQASQDISNYLNWYQQKPGKAPKLLIYDASNLETGVPSRFSGSGSGTDFTFTISSLQPEDIATYYCQQYDNLPPITFGQGTRLEIK
notes: source: recombinant, purified
B3: C1011 (antibody, V domains shown)
VH: QVQLVESGGGVVQPGRSLRLSCAVSGFTFSHYAMHWVRQAPGKGLEWVAVISYDGADKYYADSVRGRFTIARDNSKNTLFLQMSSLRPEDTAVYYCAKKGQPYCGGDCHFYYLDYWGQGTLVTVSS
VL: B2 VL with L15V, Y32H, P80A
notes: source: recombinant, purified
B4: C916 (antibody, V domains shown)
VH: EVQLVESGGGLVQPGGSLRLSCAASGFTFSNYDMHWVRQATGRGLEWVSTIGTAGDTYYPGSVKGRFTISRENAKNSLYLQMNSLRAGDTALYYCARVRYDSSGYFWSLDYWGQGTLVTVSS
VL: not shown
notes: source: recombinant, purified
B5: C917 (antibody, V domains shown)
VH: B4 VH with R43K, E46D, L92V, Y100F, S102T
VL: not shown
notes: source: recombinant, purified
B6: C936 (antibody, V domains shown)
VH: EVQLVESGGGLIQPGGSLRLSCAASGFTVSSNYMSWVRQAPGKGLEWVSVIYSGGSTFYADSVKGRFTISRDNSKNTLYLQMNSLRAEDTAVYYCARDLGTGLFDYWGQGTLVTVSS
VL: DIQLTQSPSFLSASVGDRVTITCRASQGISSYLAWYQQKPGKAPKLLIYAASTLQSGVPSRFSGSGSGTEFTLTISSLQPEDFATYYCQQLDSYPPGTFGPGTKVDIK
notes: source: recombinant, purified
B7: C841 (antibody, V domains shown)
VH: EVQLVESGGGLVQPGGSLRLSCAASGFTFSIFSMNWVRQAPGKGLEWISYISSSSGSRHYADSVKGRFTISRDNAKNSLYLQMNNLRDEDTAMYYCAREAHDGALTGYGDYLNWFDPWGQGVLVTVSS
VL: SYELTQPPSVSVAPGKTARIPCGGDSVGSKSVHWYQQKSGQAPVLVIHSDSDRPSGIPERFSGSNSGNTATLTITGVAAGDEADYYCHVWDTIGDRFYWVFGGGTKLTVL
notes: source: recombinant, purified

These binders were tested against T1, SARS-CoV-2 receptor binding domain (RBD) (SARS-CoV-2, GenBank MN985325.1 …, UniProt P0DTC2) (assay: ELISA). Conditions: both partners purified.
B1: no binding (tested: >1000 ng/ml).

The binders below were run against T1, SARS-CoV-2 receptor binding domain (RBD) (assay: BLI). Conditions: both partners purified.
Binder B2 has a Kd of 16.3 nM.
Binder B3 has a Kd of 0.0121 nM.
Binder B4 has a Kd of 2.92 nM.
B5 showed a Kd of 0.999 nM.
B6 showed a Kd of 157 nM.
B7 gave a Kd of 6.08 nM.
